T1: ASK1(1-160) (Arabidopsis thaliana, UniProt Q39255)
T1 construct: constructing the plasmid pGAD424-ASK1(1-160)[3] expressing fusion protein of ASK1 and GAL4-4AD; expressed in transfected cells; host or cells: Saccharomyces cerevisiae HF7c
T1 sequence (Q39255 1-160): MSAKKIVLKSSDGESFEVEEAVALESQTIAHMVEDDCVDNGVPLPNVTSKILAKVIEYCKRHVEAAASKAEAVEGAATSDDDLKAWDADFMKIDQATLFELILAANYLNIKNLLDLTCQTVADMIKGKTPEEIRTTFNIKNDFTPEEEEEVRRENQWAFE

T2: GST-ASK1 fusion protein (Arabidopsis thaliana, UniProt Q39255)
T2 construct: made in house; host or cells: Escherichia coli BL21(DE3) pLysS
T2 sequence (Q39255 1-160): T1 sequence (Q39255 1-160)

B1: ORE9 (1-693): complete ORE9 protein, 693 amino acids, F-box motif and 18 LRRs, SEQ ID NO: 2 (protein, listed as Arabidopsis thaliana)
chain: MASTTLSDLPDVILSTISSLVSDSRARNSLSLVSHKFLALERSTRSHLTIRGNARDLSLVPDCFRSISHLDLSFLSPWGHTLLASLPIDHQNLLALRLKFCFPFVESLNVYTRSPSSLELLLPQWPRIRHIKLLRWHQRASQIPTGGDFVPIFEHCGGFLESLDLSNFYHWTEDLPPVLLRYADVAARLTRLDLLTASFTEGYKSSEIVSITKSCPNLKTFRVACTFDPRYFEFVGDETLSAVATSSPKLTLLHMVDTASLANPRAIPGTEAGDSAVTAGTLIEVFSGLPNLEELVLDVGKDVKHSGVALEALNSKCKKLRVLKLGQFQGVCSATEWRRLDGVALCGGLQSLSIKNSGDLTDMGLVAIGRGCCKLTTFEIQGCENVTVDGLRTMVSLRSKTLTDVRISCCKNLDTAASLKAIEPICDRIKRLHIDCVWSGSEDEEVEGRVETSEADHEEEDDGYERSQKRCKYSFEEEHCSTSDVNGFCSEDRVWEKLEYLSLWINVGEFLTPLPMTGLDDCPNLEEIRIKIEGDCRGKRRPAEPEFGLSCLALYPKLSKMQLDCGDTIGFALTAPPMQMDLSLWERFFLTGIGSLSLSELDYWPPQDRDVNQRSLSLPGAGLLQECLTLRKLFIHGTAHEHFMNFLLRIPNLRDVQLRADYYPAPENDMSTEMRVGSCSRFEDQLNSRNIID
B2: ORE9(1-49): fragment of ORE9 containing N-terminal 1-49th amino acids corresponding to the F-box region (protein)
chain: MKLLSSIEQACDICRLKKLKCSKEKPKCAKCLKNNWECRYSPKTKRSPLTRAHLTEVESRLERLEQLFLLIFPREDLDMILKMDSLQDIKALLTGLFVQDNVNKDAVTDRLASVETDMPLTLRQHRISATSSSEESSNKGQRQLTVSMASTTLSDLPDVILSTISSLVSDSRARNSLSLVSHKFLALERSTRSHLT
B3: ORE9 (50-693): fragment of ORE9 containing 50-693th amino acids from which the F-box region was removed (protein)
chain: MKLLSSIEQACDICRLKKLKCSKEKPKCAKCLKNNWECRYSPKTKRSPLTRAHLTEVESRLERLEQLFLLIFPREDLDMILKMDSLQDIKALLTGLFVQDNVNKDAVTDRLASVETDMPLTLRQHRISATSSSEESSNKGQRQLTVSIRGNARDLSLVPDCFRSISHLDLSFLSPWGHTLLASLPIDHQNLLALRLKFCFPFVESLNVYTRSPSSLELLLPQWPRIRHIKLLRWHQRASQIPTGGDFVPIFEHCGGFLESLDLSNFYHWTEDLPPVLLRYADVAARLTRLDLLTASFTEGYKSSEIVSITKSCPNLKTFRVACTFDPRYFEFVGDETLSAVATSSPKLTLLHMVDTASLANPRAIPGTEAGDSAVTAGTLIEVFSGLPNLEELVLDVGKDVKHSGVALEALNSKCKKLRVLKLGQFQGVCSATEWRRLDGVALCGGLQSLSIKNSGDLTDMGLVAIGRGCCKLTTFEIQGCENVTVDGLRTMVSLRSKTLTDVRISCCKNLDTAASLKAIEPICDRIKRLHIDCVWSGSEDEEVEGRVETSEADHEEEDDGYERSQKRCKYSFEEEHCSTSDVNGFCSEDRVWEKLEYLSLWINVGEFLTPLPMTGLDDCPNLEEIRIKIEGDCRGKRRPAEPEFGLSCLALYPKLSKMQLDCGDTIGFALTAPPMQMDLSLWERFFLTGIGSLSLSELDYWPPQDRDVNQRSLSLPGAGLLQECLTLRKLFIHGTAHEHFMNFLLRIPNLRDVQLRADYYPAPENDMSTEMRVGSCSRFEDQLNSRNIID
B4: ORE9 (1-327): part of ORE9 (1-327) containing the F-box region (protein, UniProt Q9SIM9 1-327, looked up, fragment)
chain: MASTTLSDLPDVILSTISSLVSDSRARNSLSLVSHKFLALERSTRSHLTIRGNARDLSLVPDCFRSISHLDLSFLSPWGHTLLASLPIDHQNLLALRLKFCFPFVESLNVYTRSPSSLELLLPQWPRIRHIKLLRWHQRASQIPTGGDFVPIFEHCGGFLESLDLSNFYHWTEDLPPVLLRYADVAARLTRLDLLTASFTEGYKSSEIVSITKSCPNLKTFRVACTFDPRYFEFVGDETLSAVATSSPKLTLLHMVDTASLANPRAIPGTEAGDSAVTAGTLIEVFSGLPNLEELVLDVGKDVKHSGVALEALNSKCKKLRVLKLGQ

Tests used:
ASK1(1-160) = biological target: T1, ASK1(1-160); assay: Yeast two-hybrid assay with ASK1; format: cell-based; conditions: HF7c yeast; for binding with ASK1 in yeast two-hybrid assay: GAL4-BD fusion
Source text: As expression vectors of expressing GAL4 DNA binding domain (GAL4-BD) and ORE9 fusion protein, plasmids pGBT9-ORE9 (1-49) and pGBT9-ORE9 (50-693) were constructed. The plasmid pGBT9-ORE9 expresses a fragment of ORE9 containing N-terminal 1-49th amino acids corresponding to an F-box region of ORE9, and the plasmid pGBT9-ORE9 (50-693) expresses a fragment of ORE9 containing 50-693th amino acids from which the F-box region was removed.
First, the gene encoding the ORE9 (1-49) fragment was amplified by PCR using a primer represented by SEQ ID NO: 10 and SEQ ID NO: 11, and then inserted into BamHI and PstI restriction enzyme sites of pGBT9 (Clontech, USA) containing a 4-BD gene and a tryptophan auxotrophic selection marker gene (TRP1), thereby constructing the plasmid pGBT9-ORE9 (1-49). Similarly, the plasmid pGBT 9-ORE9 (50-693) was constructed, which expresses an ORE9 (50-693) fragment and a GAL4-BD fusion protein. In this case, oligonucletides represented by SEQ ID NO: 12 and SEQ ID NO: 13 were used as PCR primers to amplify the gene encoding the ORE9 (50-693) fragment.
Meanwhile, regarding ASK1(1-160) and ASK2(1-172) proteins used for identification of binding, pGAD424-ASK1(1-160) and pGAD424-ASK2(1-172) were constructed in such a manner that ASK1(1-160) and ASK2(1-172) are expressed in the form of a fusion protein with a […]. pGTE-ASK1(1-160) containing an ASK1(1-160) gene was digested with BamHI and PstI, and then inserted into pGAD424 (Clontech, USA) containing a GAL4-AD gene and a leucine auxotrophic selection marker gene (LEU2), thereby constructing the plasmid pGAD424-ASK1(1-160)[3] expressing fusion protein of ASK1 and GAL4-4AD. Similarly, the plasmid pGAD424-ASK2(1-172)[4] was constructed by inserting a BamHI/PstI fragment of pGTE-ASK2(1-172) into pGAD424.
Yeast strains, HF7c, were cultured in an YPD (yeast extract, peptone, dextrose) medium or a synthetic minimal medium (SD) containing 2% dextrose.
The HF7c yeast strains grown in the medium were transformed with different combinations of the vectors constructed in the above Example 6-1) ([1+3], [2+3] and [1+4]; see the left upper portion of FIG. 7b), respectively, by the lithium acetate method (Feilotter et al., 1994). The transformants were selected in a synthetic minimal medium containing 2% dextrose. The transformants were cultured in a SD medium from which tryptophan and leucine were removed (see the right upper portion of FIG. 7b), and in a SD medium from which tryptophan, leucine and histidine were removed and which contains 2 mM 3-amino-1,2,4-triazole (3-AT) (see the left lower portion of FIG. 7b).
The transformants were grown in a synthesis minimal medium, and the grown yeast colonies were examined for β-galactosidase activities on a filter paper. […]

GST-ASK1 fusion protein = biological target: T2, GST-ASK1 fusion protein; assay: In vitro binding assay with GST-ASK1 fusion protein; conditions: 35S-labeled in vitro translation product; glutathione beads; GST as negative control
Source text: In order to examine that ORE9 protein or derivatives thereof directly bind with ASK1, a GST-ASK1 fusion protein and a ^35S-labeled ORE9 protein produced by in vitro translation were subjected to in vitro binding assay. To obtain a glutathione S-transferase (GST) protein and a GST-ASK1 fusion protein, a vector pGEX (APBiotech, Co.) and a vector pGEX-ASK1 were constructed, which express the above proteins, respectively. Artificial sequences represented by SEQ ID NO: 14 and SEQ ID NO: 15 were used as PCR primers to amplify a gene encoding the ASK1 fragment. The resulting PCR product was digested with EcoRI and NcoI restriction enzymes, and inserted into the restriction enzyme sites of the pGEX vector. Escherichia coli BL21(DE3) pLysS was transformed with the resulting two vectors, and GST and GST-ASK1 fusion proteins were expressed. The GST and GST-ASK1 fusion proteins were purified by chromatography with glutathione-Sepharose 4B beads. The purified proteins was subjected to electrophoresis with SDS-polyacryamide gets, dyed with Coomassie blue, and measured for their amount. GST and GST-ASK1 fusion proteins of the same amount were added to glutathione beads, which had been previously washed with 10-fold volume of B buffer (20 mM […], pH 7.6, 150 mM sodium chloride, 10% glycerol, 0.5% NP-40, 1 mM DTT) three times. Then, the resulting proteins were adsorbed 4° C. for one hour using a rotating mixer. The provided beads were washed with 1 ml B buffer three times, and then stored in a state where the ratio of slurries relative to B buffer is 50%.
Meanwhile, a radioactivity-labeled ORE9 (1-693), the mutant type ore9 and ORE9 derivatives (1-327 and 50-693) were prepared using the in vitro transcription/translation system (Promega, USA) and [^35S]-methionine (DuPont NEN, USA). The proteins were quantitatively analyzed with SDS-PAGE and BAS radioanalytic imaging system (Japan). Then, the respective ^35S-labeled translation products of the same amount were mixed with 60 μl GST-adsorbed beads or GST-ASK1 fusion protein-absorbed beads, contained in 1 ml GB buffer (final concentration: 20 mM Tris-HCl, pH 7.5, 0.15% NP-40, 150 mM NaCl, 1 mM EDTA). The resulting beads were cultured in a rotating mixer at 4° C. for two hours, and then washed with 1 ml GB buffer four times. The washed beads were added with 30 μl of 2×SDS sample solutions, boiled for three minutes and then isolated with SDS-PAGE. The resulting gels were dried to dryness, and then exposed to X-ray film.

Molecule | binding with ASK1 in yeast two-hybrid assay (ASK1(1-160)) | binding (co-precipitation) with GST-ASK1 (GST-ASK1 fusion protein) | growth of transformed yeast in histidine deficient medium (ASK1(1-160); GAL4-BD fusion with GAL4-AD-ASK1(1-160), SD medium without tryptophan, leucine, histidine, 2 mM 3-AT) | β-galactosidase activity of transformed yeast (ASK1(1-160); with ASK1(1-160) plasmid, X-gal filter assay)
B1 | did not exhibit positive signals for binding to ASK1 | directly bound to ASK1 | – | –
B2 | – | – | grown in the histidine deficient medium | exhibit the β-galactosidase activity
B3 | fails to bind with ASK1 | fails to bind with GST-ASK1 | – | –
B4 | – | co-precipitated with the GST-ASK1 fusion protein | – | –
